We go through 3 molecules from publication PMC11555651 (Biochemical Journal, 2024).

Assay [1] deals with N-myc peptide 47-66 (Homo sapiens) (UniProt P04198). To be noted: cited from earlier work.
The target in assay [2] is T1, Aurora-A kinase domain 122–403 C290A,C393A (UniProt O14965 122-403, C290A | C393A).
T1 construct: Aurora-A Ser/Thr kinase, kinase domain residues 122-403 with C290A and C393A; also called Aurora-A 122–403, C290A, C393A
T1 sequence (looked up): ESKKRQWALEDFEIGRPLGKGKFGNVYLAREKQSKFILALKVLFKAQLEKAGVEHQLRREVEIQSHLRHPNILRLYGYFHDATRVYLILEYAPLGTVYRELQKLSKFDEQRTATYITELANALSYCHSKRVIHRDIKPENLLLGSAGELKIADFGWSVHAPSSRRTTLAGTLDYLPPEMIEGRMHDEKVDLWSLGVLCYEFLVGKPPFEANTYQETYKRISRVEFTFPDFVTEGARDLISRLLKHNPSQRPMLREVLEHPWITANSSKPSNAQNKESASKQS
The experiment in a line: NMR titration; 1H-15N HSQC of 15N-labelled N-myc constructs (150-315 uM); unlabelled Aurora-A kinase domain (305-400 uM stock) added up to [N-myc]:[Aurora-A] 1:1.4; 20 mM (K/H)3PO4 pH 6.5, 150 mM NaCl, 2 mM beta-mercaptoethanol, 1% glycerol, 5 mM MgCl2, 5 mM ADP; 25°C stated for N-myc TAD. Particulars: both partners purified.

Regarding Fbxw7–Skp1 (from UniProt Q969H0), in assay [1], the dissociation constant Kd is below 10 nM.

B1: N-myc_(64–137) (domain or fragment)
chain: GAMGSRGFAEHSSEPPSWVTEMLLENELWGSPAEEDAFGLGGLGGLTPNPVILQDCMWSGFSAREKLERAVSEKLQHG
notes: 15N-labelled for the NMR titration; also called C-terminal truncation of the TAD; not shown: His-NusA, N-terminal, cleaved
As for B1, in assay [2], the binding result is “binds”.

B2: N-myc_(1–137) TAD (domain or fragment)
chain: GAMMPSCSTSTMPGMICKNPDLEFDSLQPCFYPDEDDFYFGGPDSTPPGEDIWKKFELLPTPPLSPSRGFAEHSSEPPSWVTEMLLENELWGSPAEEDAFGLGGLGGLTPNPVILQDCMWSGFSAREKLERAVSEKLQHG
notes: whole N-myc is said to have 464 residues; 15N-labelled for the NMR titration; also called N-myc TAD; not shown: His-NusA, N-terminal, cleaved
B2: in assay [2], the binding result is listed as “binds”.

Broadly, the Kd is the equilibrium constant for the complex coming apart.
